T1: Par4 deletion mutant lacking the leucine zipper/death domain (amino acids 1-276) (human, UniProt Q96IZ0 1-274)
T1 construct: Tested as a Gal4-BD or Gal4-AD fusion in yeast two-hybrid; also called Par4A; Par4Δ
T1 sequence: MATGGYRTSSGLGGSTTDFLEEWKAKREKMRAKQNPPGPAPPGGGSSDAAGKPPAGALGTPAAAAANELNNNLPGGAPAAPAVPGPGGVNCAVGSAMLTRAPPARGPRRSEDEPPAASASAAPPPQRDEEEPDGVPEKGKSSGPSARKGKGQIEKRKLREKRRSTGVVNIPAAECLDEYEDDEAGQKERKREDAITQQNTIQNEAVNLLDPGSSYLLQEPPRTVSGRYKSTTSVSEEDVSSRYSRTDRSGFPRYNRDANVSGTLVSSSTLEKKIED

T2: human chemokine SLC/CCL21, mature form (amino acids 24-134) (human, UniProt O00585 24-134)
T2 construct: also called SLC/6Ckine; SLC/CCL21 wild type
T2 sequence: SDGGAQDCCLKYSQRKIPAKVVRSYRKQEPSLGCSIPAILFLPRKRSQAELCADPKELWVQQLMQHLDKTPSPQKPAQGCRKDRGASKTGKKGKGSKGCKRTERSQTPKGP

T3: GST-THAP1 fusion protein (pGEX-2T-THAP1) (human, UniProt Q5RCE4 1-213 (Pongo abelii entry))
T3 construct: Expressed in E. coli DH5alpha and immobilized on glutathione sepharose; also called GST-THAP1 wild-type; not shown: Glutathione S-transferase (GST) encoded by the pGEX-2T prokaryotic expression vector (Amersham Pharmacia Biotech); N-ter
T3 sequence: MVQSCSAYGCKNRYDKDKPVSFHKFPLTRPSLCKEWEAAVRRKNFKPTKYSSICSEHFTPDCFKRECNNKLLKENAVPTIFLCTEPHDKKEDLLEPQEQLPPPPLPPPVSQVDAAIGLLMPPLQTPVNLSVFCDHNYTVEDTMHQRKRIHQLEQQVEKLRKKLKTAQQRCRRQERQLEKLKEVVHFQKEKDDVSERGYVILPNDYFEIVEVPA

B1: human THAP1 (THanatos (death)-Associated Protein-1), full length (other)
chain: MVQSCSAYGCKNRYDKDKPVSFHKFPLTRPSLCKEWEAAVRRKNFKPTKYSSICSEHFTPDCFKRECNNKLLKENAVPTIFLCTEPHDKKEDLLEPQEQLPPPPLPPPVSQVDAAIGLLMPPLQTPVNLSVFCDHNYTVEDTMHQRKRIHQLEQQVEKLRKKLKTAQQRCRRQERQLEKLKEVVHFQKEKDDVSERGYVILPNDYFEIVEVPA
notes: It was tested as a Gal4-BD (pGBKT7) or Gal4-AD (pGADT7); also called hTHAP1; FLJ10477

Experiments:
[1] = target: T4, Glutathione S-transferase (GST) control protein (pGEX-2T) (UniProt P08515 1-218 = GST); assay: GST pull-down, immobilized GST control, in vitro translated 35S-labelled THAP1
T4 construct: Negative control immobilized on glutathione sepharose; also called GST beads; immobilized GST alone
T4 sequence (P08515 whole entry): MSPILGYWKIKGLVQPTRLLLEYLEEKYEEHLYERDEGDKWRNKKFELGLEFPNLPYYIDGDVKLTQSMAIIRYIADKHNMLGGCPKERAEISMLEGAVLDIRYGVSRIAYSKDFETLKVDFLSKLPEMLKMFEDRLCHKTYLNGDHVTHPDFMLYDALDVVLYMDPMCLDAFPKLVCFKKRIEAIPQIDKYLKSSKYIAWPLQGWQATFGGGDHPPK
Method: To confirm the interaction observed in yeast, we performed in vitro GST pull down assays. Par4DD, expressed as a GST-tagged fusion protein and immobilized on glutathione sepharose, was incubated with radiolabeled in vitro translated THAP1. To generate the GST-Par4DD expression vector, Par4DD (amino acids 250-342) was amplified by PCR with primers Par4.10 (5′-[…]-3′) (SEQ ID NO: 194) and Par4.5, and cloned in frame downstream of the Glutathion S-Transferase ORF, into the BamHI site of the pGEX-2T prokaryotic expression vector (Amersham Pharmacia Biotech, Saclay, France). GST-Par4DD(amino acids 250-342) fusion protein encoded by plasmid pGEX-2T-Par4DD and control GST protein encoded by plasmid pGEX-2T, were then expressed in E. Coli DH5α and purified by affinity chromatography with glutathione sepharose according to supplier's instructions (Amersham Pharmacia Biotech). The yield of proteins used in GST pull-down assays was determined by SDS-Polyarylamide Gel Electrophoresis (PAGE) and Coomassie blue staining analysis. In vitro-translated THAP1 was generated with the TNT-coupled reticulocyte lysate system (Promega, Madison, Wis., USA) using pGBKT7-THAP1 vector as template. […]

[2] = target: T1, Par4 deletion mutant lacking the …; assay: yeast two-hybrid (His/Ade selection)
Text: We then examined whether the leucine zipper/death domain at the C-terminus of Par4, previously shown to be involved in Par4 binding to WT-1 and aPKC, was required for the interaction between THAP1 and Par4. Two Par4 mutants were constructed for that purpose, Par4A and Par4DD. Par4A lacks the leucine zipper/death domain while Par4DD contains this domain. pGBKT7-Par4A(amino acids 1-276) and pGADT7-Par4A. were constructed by sub-cloning a EcoRI-BglII fragment from pGADT7-Par4 into the EcoRI and BamHI sites of pGBKT7 and pGADT7. Par4DD (amino acids 250-342) was amplified by PCR, using pGBKT7-Par4 as template, with primers Par4.4 (5′-[…]-3′) (SEQ ID NO: 193) and Par4.5, and cloned into the EcoRI and BamHI sites of pGBKT7 and pGADT7 to obtain pGBKT7-Par4DD and pGADT7-Par4DD. Two-hybrid interaction between THAP1 and Par4 mutants was tested by cotransformation of AH109 with pGBKT7-THAP1 and pGADT7-Par4A or pGADT7-Par4DD and selection of transformants by His and Ade double auxotrophy according to manufacturer's instructions ([…] two-hybrid system 3, Clontech). […] Similar results were obtained when two-hybrid experiments were performed in the opposite orientation using Par4 or Par4 mutants (Par4A and Par4DD) as baits instead of THAP1 (FIG. 3A).

[3] = target: T2, human chemokine SLC/CCL21, mature form …; assay: yeast two-hybrid, pGADT7-THAP1 mutant with pGBKT7-SLC/CCL21
Method: Two-hybrid interaction between THAP1 mutants and chemokine SLC/CCL21 was tested by cotransformation of AH109 with pGADT7-THAP1-C1, -C2, -C3, -N1, -N2 or -N3 and pGBKT7-SLC/CCL21 and selection of transformants by His and Ade double auxotrophy according to manufacturer's instructions ([…] two-hybrid system 3, Clontech). pGBKT7-SLC/CCL21 vector was generated by subcloning the BamHI SLC/CCL21 fragment from pGBT9-SLC (see example 1) into the unique BamHI cloning site of vector pGBKT7 (Clontech).

[4] = target: T3, GST-THAP1 fusion protein (pGEX-2T-THAP1); assay: GST pull-down, immobilized GST-THAP1, in vitro translated 35S-labelled mutant
Method: To confirm the results obtained in yeast, THAP1 mutants were also tested in in vitro GST pull down assays. Wild type THAP1 expressed as a GST-tagged fusion protein and immobilized on glutathione sepharose (as described in example 16), was incubated with radiolabeled in vitro translated THAP1 mutants. In vitro-translated THAP1 mutants were generated with the TNT-coupled reticulocyte lysate system (Promega, Madison, Wis., USA) using pGADT7-THAP1-C1, -C2, -C3, -N1, -N2 or -N3 vector as template. 25 μl of each ³⁵S-labelled THAP1 mutant was incubated with immobilized GST or GST-THAP1 wild-type protein overnight at 4° C., in the following binding buffer: 10 mM NaPO4 pH 8.0, 140 mM NaCl, 3 mM MgCl2, 1 mM dithiothreitol (DTT), 0.05% NP40, and 0.2 mM phenylmethyl sulphonyl fluoride (PMSF), 1 mM Na Vanadate, 50 mM β Glycerophosphate, 25 μg/ml chimotrypsine, 5 μg/ml aprotinin, 10 μg/ml Leupeptin. Beads were then washed 5 times in 1 ml binding buffer. Bound proteins were eluted with 2×Laemmli SDS-PAGE sample buffer, fractionated by 10% SDS-PAGE and visualized by fluorography using Amplify (Amersham Pharmacia Biotech). As expected, THAP1-C1, -C2, -C3, -and -N3 interacted with GST/THAP1 (FIG. 16B).

[5] = target: B1; assay: yeast two-hybrid, pGADT7-THAP1 mutant with pGBKT7-THAP1 wild-type
Method: Two-hybrid interaction between THAP1 mutants and THAP1 wild type was tested by cotransformation of AH109 with pGADT7-THAP1-C1, -C2, -C3, -N1, -N2 or -N3 and pGBKT7-THAP1 wild-type and selection of transformants by His and Ade double auxotrophy according to manufacturer's instructions ([…] two-hybrid system 3, Clontech).

| Binder | binding result [1] | binding result [2] | binding result [3] | binding result [4] | binding result [5] |
| --- | --- | --- | --- | --- | --- |
| B1 | no binding | no binding |  |  |  |
| THAP1-N1 deletion mutant (amino acids 1-90) (other, Tested as a Gal4-BD or Gal4-AD fusion, as in vitro translated 35S-labelled protein and as an EGFP fusion) MVQSCSAYGCKNRYDKDKPVSFHKFPLTRPSLCKEWEAAVRRKNFKPTKYSSICSEHFTPDCFKRECNNKLLKENAVPTIFLCTEPHDKK |  |  | no binding | no binding | no binding |

From patent publication US20040224408A1, “THAP proteins as nuclear receptors for chemokines and roles in transcriptional regulation, cell proliferation and cell differentiation” (published 2004)
